Results taken from patent EP4703384A1 (Chia Tai Tianqing Pharmaceutical Group Co., Ltd., dated 2026).

Legend:
T cell surface CD3 [1] = biological target: T1, T cell surface CD3 (human, UniProt P07766 23-207; P04234 22-171; P09693 23-182); assay: FACS on human CD3+ T cells
T1 construct: CD3 is a complex of several chains; also called CD3^+ T cells

human GPRC5D protein [2] = biological target: T2, human GPRC5D protein (human, UniProt Q9NZD1 1-345); assay: FACS on RPMI-8226 cells
T2 construct: also called hGPRC5D; CHO-K1-hGPRC5D^hi

human GPRC5D protein [3] = biological target: T2, human GPRC5D protein; assay: FACS on MM.1S cells
T cell surface CD3 [4] = biological target: T1, T cell surface CD3; assay: cell-based or functional assay
human GPRC5D protein [5] = biological target: T2, human GPRC5D protein; assay: FACS on NCI-H929 cells
human GPRC5D protein [6] = biological target: T2, human GPRC5D protein; assay: cell-based or functional assay

T2 sequence (Q9NZD1 whole entry): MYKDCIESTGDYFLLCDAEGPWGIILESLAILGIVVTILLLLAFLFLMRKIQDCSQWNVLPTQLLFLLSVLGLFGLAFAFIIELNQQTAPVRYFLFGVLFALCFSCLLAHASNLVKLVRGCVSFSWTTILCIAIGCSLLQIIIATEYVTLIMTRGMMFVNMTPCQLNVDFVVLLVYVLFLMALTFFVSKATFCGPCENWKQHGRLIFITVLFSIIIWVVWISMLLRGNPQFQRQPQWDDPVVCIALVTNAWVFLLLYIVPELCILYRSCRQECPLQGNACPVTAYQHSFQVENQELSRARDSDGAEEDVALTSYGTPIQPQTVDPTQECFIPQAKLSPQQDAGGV
T1 sequence (P07766 23-207 limits assumed, chain 1 of 3): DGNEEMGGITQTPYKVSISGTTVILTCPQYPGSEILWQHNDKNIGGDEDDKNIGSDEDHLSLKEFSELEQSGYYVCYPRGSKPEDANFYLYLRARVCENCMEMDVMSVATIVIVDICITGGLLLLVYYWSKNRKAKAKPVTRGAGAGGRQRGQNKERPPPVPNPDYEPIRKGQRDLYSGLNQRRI
T1 sequence (P04234 22-171 limits assumed, chain 2 of 3): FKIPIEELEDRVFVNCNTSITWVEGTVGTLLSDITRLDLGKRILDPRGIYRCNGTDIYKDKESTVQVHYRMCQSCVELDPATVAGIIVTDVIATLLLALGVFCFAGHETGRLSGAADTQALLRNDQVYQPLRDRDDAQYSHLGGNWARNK
T1 sequence (P09693 23-182 limits assumed, chain 3 of 3): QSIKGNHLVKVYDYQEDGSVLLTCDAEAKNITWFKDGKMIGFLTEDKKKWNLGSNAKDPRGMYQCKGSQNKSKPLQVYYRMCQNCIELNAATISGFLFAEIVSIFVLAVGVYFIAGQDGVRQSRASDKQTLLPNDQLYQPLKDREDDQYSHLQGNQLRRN

EC50 (T cell surface CD3 [1]): 48900 pM
Top(MFI) (T cell surface CD3 [1]): 54700 MFI
EC50 (human GPRC5D protein [2]): 15900 pM
EC50 (human GPRC5D protein [3]): 3750 pM
CD25/CD4 EC50(nM), activation of T cells in the presence of MM.1S (T cell surface CD3 [4]): 0.00999 nM
CD25/CD8 EC50(nM), activation of T cells in the presence of MM.1S (T cell surface CD3 [4]): 0.00879 nM
CD69/CD4 EC50(nM), activation of T cells in the presence of MM.1S (T cell surface CD3 [4]): 0.00738 nM
CD69/CD8 EC50(nM), activation of T cells in the presence of MM.1S (T cell surface CD3 [4]): 0.00458 nM
EC50 (human GPRC5D protein [5]): 3040 pM
Lysis EC50(nM), MM.1S target cells with human PBMC (human GPRC5D protein [6]): 0.00534 nM
Lysis EC50(nM), NCI-H929 target cells with human PBMC (human GPRC5D protein [6]): 0.00592 nM
Lysis EC50(nM), RPMI-8226 target cells with human PBMC (human GPRC5D protein [6]): 0.0163 nM
B1: GC35 (bispecific antibody, human IgG1, kappa, L234A L235A)
heavy: EVQLVQSGAEVVKPGASVKMSCKASGYTFTNYVMHWVKQAPGQGLEWMGYFNPYNDGTNYNEKFKGRVTLTSDTSANTAYMELSSLRSEDTAVYYCARGGVRRYFDVWGQGTTVTVSSASTKGPSVFPLAPSSKSTSGGTAALGCLVKDYFPEPVTVSWNSGALTSGVHTFPAVLQSSGLYSLSSVVTVPSSSLGTQTYICNVNHKPSNTKVDKKVEPKSCDKTHTCPPCPAPEAAGGPSVFLFPPKPKDTLMISRTPEVTCVVVDVSHEDPEVKFNWYVDGVEVHNAKTKPREEQYNSTYRVVSVLTVLHQDWLNGKEYKCKVSNKALAAPIEKTISKAKGQPREPQVCTLPPSREEMTKNQVSLSCAVKGFYPSDIAVEWESNGQPENNYKTTPPVLDSDGSFFLVSKLTVDKSRWQQGNVFSCSVMHEALHNHYTQKSLSLSPGK
light: DIQMTQSPSSLSASVGDRVTITCRASQDIGSNLNWLQLGPGGAIKRLIYATFSLDSGVPSRFSGSRSGSDYTLTISSLQPEDFVDYYCQQYANFPPTFGGGTKVEIKRTVAAPSVFIFPPSDEQLKSGTASVVCLLNNFYPREAKVQWKVDNALQSGNSQESVTEQDSKDSTYSLSSTLTLSKADYEKHKVYACEVTHQGLSSPVTKSFNRGEC
chain: ELVVTQEPSLTTSPGGTVTLTCRSSTGAVTTSNYANWVQQKPGQAPRGLIGGTNKRAPGTPARFSGSLLGGKAALTITGVQPEDEAEYYCALWYSNLWVFGGGTKLTVLGGGGSGGGGSGGGGSEVQLVESGGGLVQPGGSLRLSCAASGFTFNTYAMNWVRQAPGKGLEWVARIRSKYNNYATYYADSVKDRFTISRDDSKNTAYLQMNNLKTEDTAMYYCVRHGNFGNSYVSWFAYWGQGTLVTVSSGEPKSSDKTHTCPPCPAPEAAGGPSVFLFPPKPKDTLMISRTPEVTCVVVDVSHEDPEVKFNWYVDGVEVHNAKTKPREEQYNSTYRVVSVLTVLHQDWLNGKEYKCKVSNKALAAPIEKTISKAKGQPREPQVYTLPPCREEMTKNQVSLWCLVKGFYPSDIAVEWESNGQPENNYKTTPPVLDSDGSFFLYSKLTVDKSRWQQGNVFSCSVMHEALHNRYTQKSLSLSPGK
notes: also called anti-GPRC5D/anti-CD3 bispecific antibody GC35
